Drawing on patent US5470740, this text covers activity (units/g cells) for one substance.

In the data set the test system is NsiI restriction endonuclease (Neisseria sicca BRL 397). Description: cleavage_in_vitro. To be noted: crude sonicated extract, REact 3 buffer, 37 C, 1 h; each of pUC123 and pUC140.

The substance lambda DNA showed an activity (units/g cells) of more than 26000.
